Test results taken from patent publication US20160122418A1.

What was measured:
[1] = molecular target: F protein of RSV reference strain RSV-B (ATCC VR 1580) (RSV-B (ATCC VR 1580)) (UniProt P13843); assay: cell-based or functional assay
[2] = molecular target: F protein of RSV reference strain RSV-A Long (ATCC VR-26) (RSV-A Long (ATCC VR-26)) (UniProt P12568); assay: cell-based or functional assay
[3] = molecular target: F protein on intact RSV particles (Example 10, strain or isolate not stated) (RSV, strain not stated); assay: competition ELISA; RSV particles pre-incubated with control mAb at 20 µg/mL (the reference); competitor (coating mAb): palivizumab
[4] = molecular target: F protein on intact RSV particles (Example 10, strain or isolate not stated) (RSV, strain not stated); assay: competition ELISA; RSV particles pre-incubated with control mAb at 20 µg/mL (the reference); competitor (coating mAb): AR201

Chain of F protein of RSV reference strain RSV-A Long (ATCC VR-26) (RSV-A Long (ATCC VR-26)) (P12568 26-574): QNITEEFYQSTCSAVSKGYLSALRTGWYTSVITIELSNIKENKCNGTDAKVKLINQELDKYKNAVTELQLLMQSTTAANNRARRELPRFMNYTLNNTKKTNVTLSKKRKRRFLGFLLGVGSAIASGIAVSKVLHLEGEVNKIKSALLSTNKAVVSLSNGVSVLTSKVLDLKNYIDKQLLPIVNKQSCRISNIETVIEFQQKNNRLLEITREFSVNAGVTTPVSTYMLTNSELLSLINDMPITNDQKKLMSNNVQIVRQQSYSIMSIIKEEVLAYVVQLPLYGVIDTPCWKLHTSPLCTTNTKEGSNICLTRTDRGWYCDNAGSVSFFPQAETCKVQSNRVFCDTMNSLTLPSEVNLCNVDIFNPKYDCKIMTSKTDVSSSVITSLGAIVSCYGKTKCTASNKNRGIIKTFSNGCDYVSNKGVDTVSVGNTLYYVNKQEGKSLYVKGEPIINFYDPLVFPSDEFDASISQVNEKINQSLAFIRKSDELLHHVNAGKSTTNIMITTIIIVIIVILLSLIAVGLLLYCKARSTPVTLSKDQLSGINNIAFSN
Chain of F protein of RSV reference strain RSV-B (ATCC VR 1580) (RSV-B (ATCC VR 1580)) (P13843 26-574): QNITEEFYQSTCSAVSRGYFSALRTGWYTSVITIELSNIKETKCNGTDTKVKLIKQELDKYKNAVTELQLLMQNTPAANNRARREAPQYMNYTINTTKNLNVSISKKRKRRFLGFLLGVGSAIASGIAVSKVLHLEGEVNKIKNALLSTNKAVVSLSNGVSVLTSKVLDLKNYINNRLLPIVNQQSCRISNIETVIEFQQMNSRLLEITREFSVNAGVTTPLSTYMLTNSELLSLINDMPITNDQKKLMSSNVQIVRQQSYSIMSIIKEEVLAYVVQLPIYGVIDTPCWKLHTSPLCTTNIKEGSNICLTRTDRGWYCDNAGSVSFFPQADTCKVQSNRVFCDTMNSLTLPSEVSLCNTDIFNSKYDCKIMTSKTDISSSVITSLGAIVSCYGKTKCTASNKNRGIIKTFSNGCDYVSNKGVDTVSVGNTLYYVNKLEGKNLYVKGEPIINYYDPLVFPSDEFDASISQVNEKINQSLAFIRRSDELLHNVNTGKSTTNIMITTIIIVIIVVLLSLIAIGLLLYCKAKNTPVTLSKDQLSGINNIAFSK

Substance | Estimated half-maximal effective antibody concentration (ng/mL), plaque neutralization on Vero cells [1] [ng/mL] | Estimated half-maximal effective antibody concentration (ng/mL), plaque neutralization on Vero cells [2] [ng/mL] | % binding of RSV to the coating mAb relative to control IgG [3] [%] | % binding of RSV to the coating mAb relative to control IgG [4] [%]
unrelated fully human monoclonal IgG1 antibody (control) | > 1000 | > 1000 | 100 | 100
palivizumab (antibody) | 200 | 100 | – | –
